In patent publication US10941182 (Amgen, dated 2021):
Starred links: 1 amine or outer side, 2 acyl side, 3 side chain; linkers in the order of their positions; H or OH if unused. Non-standard residues stand in square brackets, D forms with d. *: point of attachment. AC4Abu = α-carboxy-4-aminobutyric acid, O=C(C(CCN[*:1])C(=O)[*:3])[*:2]; Oic = O=C(O)[C@@H]1C[C@@H]2CCCC[C@@H]2N1; Phe(4-Cl) = N[C@@H](Cc1ccc(Cl)cc1)C(=O)O; γGlu = O=C(O)[C@H](CCC(=O)[*:2])N[*:1]; 2Nal = N[C@@H](Cc1ccc2ccccc2c1)C(=O)O; NMeR = CN[C@@H](CCCNC(=N)N)C(=O)O; Tridecanoyl = CCCCCCCCCCCCC(=O)*; hArg = N=C(N)NCCCC[C@H](N)C(=O)O; Cha = N[C@@H](CC1CCCCC1)C(=O)O; αMeL = CC(C)C[C@](C)(N)C(=O)O; αMeP = C[C@@]1(C(=O)O)CCCN1; Nle = CCCC[C@H](N)C(=O)O; AEEA = NCCOCCOCC(=O)O; Aib = CC(C)(N)C(=O)O; BLeu = β-leucine

T1: human APJ receptor (human, UniProt P35414 1-380)
T1 sequence (looked up): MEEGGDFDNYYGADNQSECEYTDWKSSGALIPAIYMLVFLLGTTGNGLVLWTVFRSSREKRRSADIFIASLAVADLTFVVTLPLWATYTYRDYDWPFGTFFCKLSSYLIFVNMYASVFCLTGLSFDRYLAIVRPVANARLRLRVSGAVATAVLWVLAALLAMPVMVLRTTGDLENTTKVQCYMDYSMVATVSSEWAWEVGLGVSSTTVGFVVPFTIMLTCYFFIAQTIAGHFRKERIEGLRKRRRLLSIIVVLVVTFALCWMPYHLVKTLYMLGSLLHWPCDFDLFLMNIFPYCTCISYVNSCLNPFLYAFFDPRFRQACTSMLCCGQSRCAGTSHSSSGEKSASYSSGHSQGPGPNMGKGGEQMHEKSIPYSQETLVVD

T2: rat APJ receptor (rat, UniProt Q9JHG3 1-377)
T2 sequence (looked up): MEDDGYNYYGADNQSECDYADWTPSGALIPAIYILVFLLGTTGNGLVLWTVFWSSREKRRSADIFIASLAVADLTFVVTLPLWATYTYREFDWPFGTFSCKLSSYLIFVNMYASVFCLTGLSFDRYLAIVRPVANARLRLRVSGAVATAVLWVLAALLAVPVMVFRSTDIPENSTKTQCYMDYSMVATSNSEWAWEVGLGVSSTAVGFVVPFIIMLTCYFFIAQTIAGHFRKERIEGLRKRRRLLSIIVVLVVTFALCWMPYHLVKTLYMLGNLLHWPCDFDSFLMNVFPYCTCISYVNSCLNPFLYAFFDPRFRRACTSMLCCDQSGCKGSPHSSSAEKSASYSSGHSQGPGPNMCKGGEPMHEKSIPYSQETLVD

B1: Apelin polypeptide SEQ ID NO: 308 (peptide)
peptide: Tridecanoyl-[γGlu][AEEA][AEEA]QRP[hArg][Cha]SHKG[Oic][Nle]P[Phe(4-Cl)]-OH
SMILES: CCCCCCCCCCCCC(=O)N[C@@H](CCC(=O)NCCOCCOCC(=O)NCCOCCOCC(=O)N[C@@H](CCC(N)=O)C(=O)N[C@@H](CCCNC(=N)N)C(=O)N1CCC[C@H]1C(=O)N[C@@H](CCCCNC(=N)N)C(=O)N[C@@H](CC1CCCCC1)C(=O)N[C@@H](CO)C(=O)N[C@@H](Cc1c[nH]cn1)C(=O)N[C@@H](CCCCN)C(=O)NCC(=O)N1[C@H](C(=O)N[C@@H](CCCC)C(=O)N2CCC[C@H]2C(=O)N[C@@H](Cc2ccc(Cl)cc2)C(=O)O)C[C@@H]2CCCC[C@@H]21)C(=O)O
B2: Apelin polypeptide SEQ ID NO: 528 (peptide)
peptide: Tridecanoyl-[γGlu][AEEA][AEEA][dQ]RP[Nle][Cha]SHKG[Oic][Nle][Aib][Phe(4-Cl)]-OH
SMILES: CCCCCCCCCCCCC(=O)N[C@@H](CCC(=O)NCCOCCOCC(=O)NCCOCCOCC(=O)N[C@H](CCC(N)=O)C(=O)N[C@@H](CCCNC(=N)N)C(=O)N1CCC[C@H]1C(=O)N[C@@H](CCCC)C(=O)N[C@@H](CC1CCCCC1)C(=O)N[C@@H](CO)C(=O)N[C@@H](Cc1c[nH]cn1)C(=O)N[C@@H](CCCCN)C(=O)NCC(=O)N1[C@H](C(=O)N[C@@H](CCCC)C(=O)NC(C)(C)C(=O)N[C@@H](Cc2ccc(Cl)cc2)C(=O)O)C[C@@H]2CCCC[C@@H]21)C(=O)O
B3: Apelin polypeptide SEQ ID NO: 356 (peptide)
peptide: Tridecanoyl-[γGlu][AEEA][AEEA]QRP[hArg]LSHKG[Oic][Nle]P[Phe(4-Cl)]-OH
SMILES: CCCCCCCCCCCCC(=O)N[C@@H](CCC(=O)NCCOCCOCC(=O)NCCOCCOCC(=O)N[C@@H](CCC(N)=O)C(=O)N[C@@H](CCCNC(=N)N)C(=O)N1CCC[C@H]1C(=O)N[C@@H](CCCCNC(=N)N)C(=O)N[C@@H](CC(C)C)C(=O)N[C@@H](CO)C(=O)N[C@@H](Cc1c[nH]cn1)C(=O)N[C@@H](CCCCN)C(=O)NCC(=O)N1[C@H](C(=O)N[C@@H](CCCC)C(=O)N2CCC[C@H]2C(=O)N[C@@H](Cc2ccc(Cl)cc2)C(=O)O)C[C@@H]2CCCC[C@@H]21)C(=O)O
B4: Apelin polypeptide SEQ ID NO: 360 (peptide)
peptide: Tridecanoyl-[γGlu][AEEA][AEEA]QRP[hArg][αMeL]SHKG[Oic][Nle]P[Phe(4-Cl)]-OH
SMILES: CCCCCCCCCCCCC(=O)N[C@@H](CCC(=O)NCCOCCOCC(=O)NCCOCCOCC(=O)N[C@@H](CCC(N)=O)C(=O)N[C@@H](CCCNC(=N)N)C(=O)N1CCC[C@H]1C(=O)N[C@@H](CCCCNC(=N)N)C(=O)N[C@@](C)(CC(C)C)C(=O)N[C@@H](CO)C(=O)N[C@@H](Cc1c[nH]cn1)C(=O)N[C@@H](CCCCN)C(=O)NCC(=O)N1[C@H](C(=O)N[C@@H](CCCC)C(=O)N2CCC[C@H]2C(=O)N[C@@H](Cc2ccc(Cl)cc2)C(=O)O)C[C@@H]2CCCC[C@@H]21)C(=O)O
B5: Apelin polypeptide SEQ ID NO: 404 (peptide)
peptide: Tridecanoyl-[AC4Abu][AEEA][AEEA]QRP[hArg][αMeL]SHKGP[Nle]P[2Nal]-OH
SMILES: CCCCCCCCCCCCC(=O)NCCC(C(=O)O)C(=O)NCCOCCOCC(=O)NCCOCCOCC(=O)N[C@@H](CCC(N)=O)C(=O)N[C@@H](CCCNC(=N)N)C(=O)N1CCC[C@H]1C(=O)N[C@@H](CCCCNC(=N)N)C(=O)N[C@@](C)(CC(C)C)C(=O)N[C@@H](CO)C(=O)N[C@@H](Cc1c[nH]cn1)C(=O)N[C@@H](CCCCN)C(=O)NCC(=O)N1CCC[C@H]1C(=O)N[C@@H](CCCC)C(=O)N1CCC[C@H]1C(=O)N[C@@H](Cc1ccc2ccccc2c1)C(=O)O
B6: Apelin polypeptide SEQ ID NO: 428 (peptide)
peptide: Tridecanoyl-[γGlu][AEEA][AEEA]QRP[Nle]LSHKGP[Nle]P[Phe(4-Cl)]-OH
SMILES: CCCCCCCCCCCCC(=O)N[C@@H](CCC(=O)NCCOCCOCC(=O)NCCOCCOCC(=O)N[C@@H](CCC(N)=O)C(=O)N[C@@H](CCCNC(=N)N)C(=O)N1CCC[C@H]1C(=O)N[C@@H](CCCC)C(=O)N[C@@H](CC(C)C)C(=O)N[C@@H](CO)C(=O)N[C@@H](Cc1c[nH]cn1)C(=O)N[C@@H](CCCCN)C(=O)NCC(=O)N1CCC[C@H]1C(=O)N[C@@H](CCCC)C(=O)N1CCC[C@H]1C(=O)N[C@@H](Cc1ccc(Cl)cc1)C(=O)O)C(=O)O
B7: Apelin polypeptide SEQ ID NO: 376 (peptide)
peptide: Tridecanoyl-[γGlu][AEEA][AEEA]QRP[NMeR][αMeL]SHKG[Oic][Nle][αMeP][Phe(4-Cl)]-OH
SMILES: CCCCCCCCCCCCC(=O)N[C@@H](CCC(=O)NCCOCCOCC(=O)NCCOCCOCC(=O)N[C@@H](CCC(N)=O)C(=O)N[C@@H](CCCNC(=N)N)C(=O)N1CCC[C@H]1C(=O)N(C)[C@@H](CCCNC(=N)N)C(=O)N[C@@](C)(CC(C)C)C(=O)N[C@@H](CO)C(=O)N[C@@H](Cc1c[nH]cn1)C(=O)N[C@@H](CCCCN)C(=O)NCC(=O)N1[C@H](C(=O)N[C@@H](CCCC)C(=O)N2CCC[C@@]2(C)C(=O)N[C@@H](Cc2ccc(Cl)cc2)C(=O)O)C[C@@H]2CCCC[C@@H]21)C(=O)O
B8: Apelin polypeptide SEQ ID NO: 385 (peptide)
peptide: Tridecanoyl-[γGlu][AEEA][AEEA]QRP[NMeR][αMeL]SHKG[Oic][Nle]P[Phe(4-Cl)]-OH
SMILES: CCCCCCCCCCCCC(=O)N[C@@H](CCC(=O)NCCOCCOCC(=O)NCCOCCOCC(=O)N[C@@H](CCC(N)=O)C(=O)N[C@@H](CCCNC(=N)N)C(=O)N1CCC[C@H]1C(=O)N(C)[C@@H](CCCNC(=N)N)C(=O)N[C@@](C)(CC(C)C)C(=O)N[C@@H](CO)C(=O)N[C@@H](Cc1c[nH]cn1)C(=O)N[C@@H](CCCCN)C(=O)NCC(=O)N1[C@H](C(=O)N[C@@H](CCCC)C(=O)N2CCC[C@H]2C(=O)N[C@@H](Cc2ccc(Cl)cc2)C(=O)O)C[C@@H]2CCCC[C@@H]21)C(=O)O
B9: Apelin polypeptide SEQ ID NO: 378 (peptide)
peptide: Tridecanoyl-[γGlu][AEEA][AEEA][dQ]RP[hArg][BLeu]SHKG[Oic][Nle]P[Phe(4-Cl)]-OH
B10: Apelin polypeptide SEQ ID NO: 476 (peptide)
peptide: Tridecanoyl-[γGlu][AEEA][AEEA]QRE[NMeR]LSHKGP[Nle]P[Phe(4-Cl)]-OH
SMILES: CCCCCCCCCCCCC(=O)N[C@@H](CCC(=O)NCCOCCOCC(=O)NCCOCCOCC(=O)N[C@@H](CCC(N)=O)C(=O)N[C@@H](CCCNC(=N)N)C(=O)N[C@@H](CCC(=O)O)C(=O)N(C)[C@@H](CCCNC(=N)N)C(=O)N[C@@H](CC(C)C)C(=O)N[C@@H](CO)C(=O)N[C@@H](Cc1c[nH]cn1)C(=O)N[C@@H](CCCCN)C(=O)NCC(=O)N1CCC[C@H]1C(=O)N[C@@H](CCCC)C(=O)N1CCC[C@H]1C(=O)N[C@@H](Cc1ccc(Cl)cc1)C(=O)O)C(=O)O
B11: Apelin polypeptide SEQ ID NO: 529 (peptide)
peptide: Tridecanoyl-[γGlu][AEEA][AEEA][dQ]RP[Nle][Cha]SAKG[Oic][Nle][Aib][Phe(4-Cl)]-OH
SMILES: CCCCCCCCCCCCC(=O)N[C@@H](CCC(=O)NCCOCCOCC(=O)NCCOCCOCC(=O)N[C@H](CCC(N)=O)C(=O)N[C@@H](CCCNC(=N)N)C(=O)N1CCC[C@H]1C(=O)N[C@@H](CCCC)C(=O)N[C@@H](CC1CCCCC1)C(=O)N[C@@H](CO)C(=O)N[C@@H](C)C(=O)N[C@@H](CCCCN)C(=O)NCC(=O)N1[C@H](C(=O)N[C@@H](CCCC)C(=O)NC(C)(C)C(=O)N[C@@H](Cc2ccc(Cl)cc2)C(=O)O)C[C@@H]2CCCC[C@@H]21)C(=O)O

Molecular target: T1, human APJ receptor
Test: cell-based or functional assay

| Binder | EC50 Human APJ Receptor (GTPγS assay) |
| --- | --- |
| B1 | 0.0867 nM |
| B2 | 5.63 nM |
| B3 | 0.321 nM |
| B4 | 0.0519 nM |
| B5 | 0.298 nM |
| B6 | 0.4 nM |
| B7 | 0.237 nM |
| B8 | 0.0688 nM |
| B9 | 0.26 nM |
| B10 | 0.346 nM |
| B11 | 5.26 nM |

Molecular target: T2, rat APJ receptor
Test: cell-based or functional assay

| Binder | EC50 Rat APJ Receptor (GTPγS assay) |
| --- | --- |
| B1 | 0.18 nM |
| B2 | 21.8 nM |
| B3 | 0.289 nM |
| B4 | 0.0827 nM |
| B5 | 0.361 nM |
| B6 | 0.494 nM |
| B7 | 0.414 nM |
| B8 | 0.17 nM |
| B9 | 0.411 nM |
| B10 | 0.873 nM |
| B11 | 24 nM |
